Experimental data published in paper PMC3902948.

Columns and labels:
Prp43-Strep = Prp43-Strep (Saccharomyces cerevisiae S288c, UniProt P53131 1-767); test: UV cross-linking
[1] = target: Prp43-Strep;Strep-Ntr1(1-120) (Saccharomyces cerevisiae …, UniProt P53131;Q06411 1-767;1-120, |); test: UV cross-linking
Prp43-Strep;Strep-Ntr1(1-120), sequence (P53131 whole entry, chain 1 of 2): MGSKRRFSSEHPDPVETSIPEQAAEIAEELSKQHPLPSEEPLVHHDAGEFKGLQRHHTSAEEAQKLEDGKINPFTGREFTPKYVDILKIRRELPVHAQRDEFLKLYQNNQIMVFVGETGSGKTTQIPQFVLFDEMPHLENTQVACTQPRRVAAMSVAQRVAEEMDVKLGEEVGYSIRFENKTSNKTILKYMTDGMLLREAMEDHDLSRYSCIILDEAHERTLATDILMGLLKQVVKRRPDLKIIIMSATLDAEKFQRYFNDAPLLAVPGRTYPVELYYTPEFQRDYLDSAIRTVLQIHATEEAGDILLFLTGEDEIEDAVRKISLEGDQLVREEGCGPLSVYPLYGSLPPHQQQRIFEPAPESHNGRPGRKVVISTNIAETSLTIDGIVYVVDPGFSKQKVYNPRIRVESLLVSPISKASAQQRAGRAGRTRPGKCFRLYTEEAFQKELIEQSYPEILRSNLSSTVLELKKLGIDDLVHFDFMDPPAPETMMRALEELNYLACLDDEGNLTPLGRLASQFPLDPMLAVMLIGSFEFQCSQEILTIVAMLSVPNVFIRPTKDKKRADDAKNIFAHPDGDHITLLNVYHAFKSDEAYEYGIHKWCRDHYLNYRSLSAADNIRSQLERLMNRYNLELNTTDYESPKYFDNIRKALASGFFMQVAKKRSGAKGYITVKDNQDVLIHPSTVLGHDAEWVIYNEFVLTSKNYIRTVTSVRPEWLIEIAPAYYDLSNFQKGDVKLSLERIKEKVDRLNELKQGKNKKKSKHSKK
Prp43-Strep;Strep-Ntr1(1-120), sequence (Q06411 1-120, chain 2 of 2): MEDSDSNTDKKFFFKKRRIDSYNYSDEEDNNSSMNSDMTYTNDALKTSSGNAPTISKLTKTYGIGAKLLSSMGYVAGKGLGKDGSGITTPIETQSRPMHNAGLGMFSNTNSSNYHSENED

Prp43-Strep, sequence (P53131 whole entry): as the sequence (P53131 whole entry, chain 1 of 2) above

## GACGGGCUGUUGGUGAUGGAC (ssRNA) [21-mer ssRNA]
Prp43-Strep
  binding result: binds
[1]
  binding result: binds
